Assay [1] has as its system senescent WI-38 cells induced by IR (IR-SC). The experiment in a line: Apoptosis by Annexin V-FITC staining and flow cytometry, WI-38 IR-SC. Format: cell-based, human. How it is done: FIG. 2A, FIG. 2B, FIG. 2C, FIG. 2D, FIG. 2E, FIG. 2F, FIG. 2G, FIG. 2H, FIG. 2I, FIG. 2J, FIG. 2K, FIG. 2L, FIG. 2M and FIG. 2N depict graphs showing that FasAb and Trail selectively kill senescent cells by induction of apoptosis. (FIG. 2A, FIG. 2B, FIG. 2C, FIG. 2D) Non-senescent cells (NC) and senescent WI-38 cells induced by IR (IR-SC) were incubated with different concentrations of FasAb (Clone CH11, Cat #05-201, Millipore, Mass., USA) or Trail (Cat #310-04, Peprotech, N.J., USA) for 3 days to count number of viable cells. […] (FIG. 2E, FIG. 2F) WI-38 NC and IR-SC were incubated with vehicle (Veh), FasAb (10 ng/ml) or Trail (12.5 ng/ml) for 3 days, and apoptosis in these cells was determined by Annexin V-FITC staining and flow cytometry. […] (FIG. 2G, FIG. 2H) NCs and IR-SCs were incubated with vehicle (Veh), FasAb (10 ng/ml) or Trail (12.5 ng/ml) for 3 days after the cells were preincubated with vehicle (Veh) or 10 μM Q-VD-OPh hydrate (QVD) for 2 hours, and apoptosis in these cells was determined by Annexin V-FITC staining and flow cytometry. […]
WI-38 NC and IR-SC were incubated with vehicle (Veh), FasAb (10 ng/ml) or TRAIL (12.5 ng/ml) for 3 days, and apoptosis in these cells was determined by Annexin V-FITC staining and flow cytometry. […]

Assay [2] has the same test system. The assay is described as follows: Viable cell count, senescent WI-38 cells induced by IR. Format: cell-based, human. How it is done: FIG. 2A, FIG. 2B, FIG. 2C, FIG. 2D, FIG. 2E, FIG. 2F, FIG. 2G, FIG. 2H, FIG. 2I, FIG. 2J, FIG. 2K, FIG. 2L, FIG. 2M and FIG. 2N depict graphs showing that FasAb and Trail selectively kill senescent cells by induction of apoptosis. (FIG. 2A, FIG. 2B, FIG. 2C, FIG. 2D) Non-senescent cells (NC) and senescent WI-38 cells induced by IR (IR-SC) were incubated with different concentrations of FasAb (Clone CH11, Cat #05-201, Millipore, Mass., USA) or Trail (Cat #310-04, Peprotech, N.J., USA) for 3 days to count number of viable cells. The data presented are means±SD of viable cells as a percent of control without FasAb or Trail treatment from 3 independent experiments. **, p<0.01; ***, p<0.001; and ****, p<0.0001, vs. without FasAb or Trail. (FIG. 2E, FIG. 2F) WI-38 NC and IR-SC were incubated with vehicle (Veh), FasAb (10 ng/ml) or Trail (12.5 ng/ml) for 3 days, and apoptosis in these cells was determined by Annexin V-FITC staining and flow cytometry. […] (FIG. 2G, FIG. 2H) NCs and IR-SCs were incubated with vehicle (Veh), FasAb (10 ng/ml) or Trail (12.5 ng/ml) for 3 days after the cells were preincubated with vehicle (Veh) or 10 μM Q-VD-OPh hydrate (QVD) for 2 hours, and apoptosis in these cells was determined by Annexin V-FITC staining and flow cytometry. […]

Assay [3] deals with senescent IMR90 cells induced by IR (IR-SC). The assay is described as follows: Viable cell count, senescent IMR90 cells induced by IR. Format: cell-based. The conditions noted are these: different concentrations, 3 days (FIG. 2K-2N).

Turning to `CC(C)[C@H](NC(=O)c1ccc2ccccc2n1)C(=O)N[C@@H](CC(=O)O)C(=O)COc1c(F)cccc1F` [QVD, Q-VD-OPh hydrate, reference compound], in assay [1] (10 μM QVD preincubated 2 hours, then FasAb 10 ng/ml or TRAIL 12.5 ng/ml for 3 days (FIG. 2G, 2H)), the “effect of QVD on apoptosis induced by FasAb and TRAIL” value is “blocked the ability of FasAb and TRAIL to induce apoptosis”. Further, the “effect of QVD on the viable cell reduction by FasAb and TRAIL” value in assay [2] (IR-SC, 10 μM QVD preincubated 2 hours, then FasAb 10 ng/ml or TRAIL 12.5 ng/ml for 3 days (FIG. 2I, 2J)) was “blocks the activity observed with FasAb and TRAIL”.

B1: TRAIL: recombinant TNF-related apoptosis-inducing ligand, Cat #310-04, Peprotech (protein, UniProt P50591 1-281, looked up)
Tumor necrosis factor ligand …: MAMMEVQGGPSLGQTCVLIVIFTVLLQSLCVAVTYVYFTNELKQMQDKYSKSGIACFLKEDDSYWDPNDEESMNSPCWQVKWQLRQLVRKMILRTSEETISTVQEKQQNISPLVRERGPQRVAAHITGTRGRSNTLSSPNSKNEKALGRKINSWESSRSGHSFLSNLHLRNGELVIHEKGFYYIYSQTYFRFQEEIKENTKNDKQMVQYIYKYTSYPDPILLMKSARNSCWSKDAEYGLYSIYQGGIFELKENDRIFVSVTNEHLIDMDHEASFFGAFLVG
Turning to B1, the “apoptosis (Annexin V-FITC+ cells)” value in assay [1] (WI-38 IR-SC, FasAb 10 ng/ml or TRAIL 12.5 ng/ml, 3 days, relative to untreated or non-senescent cells (FIG. 2E, 2F)) was “significantly increased”. In addition, the “number of viable cells (reported as apoptosis induction)” value in assay [3] is on record as “induced apoptosis”. The “number of viable cells” value in assay [2] (WI-38 IR-SC vs NC, different concentrations, 3 days (FIG. 2A-2D)) is “significantly reduced the number of viable cells relative to NC”.

These data come from patent US20180002431A1, “FAS AND DRs ARE NOVEL MOLECULAR TARGETS OF SENESCENT CELLS” (BioVentures, LLC, priority 2015, published 2018).
